The target of experiment [1] is T1, human ABCG2 (human, UniProt Q9UNQ0 1-655).
T1 construct: also called hG2; KPG2
T1 sequence: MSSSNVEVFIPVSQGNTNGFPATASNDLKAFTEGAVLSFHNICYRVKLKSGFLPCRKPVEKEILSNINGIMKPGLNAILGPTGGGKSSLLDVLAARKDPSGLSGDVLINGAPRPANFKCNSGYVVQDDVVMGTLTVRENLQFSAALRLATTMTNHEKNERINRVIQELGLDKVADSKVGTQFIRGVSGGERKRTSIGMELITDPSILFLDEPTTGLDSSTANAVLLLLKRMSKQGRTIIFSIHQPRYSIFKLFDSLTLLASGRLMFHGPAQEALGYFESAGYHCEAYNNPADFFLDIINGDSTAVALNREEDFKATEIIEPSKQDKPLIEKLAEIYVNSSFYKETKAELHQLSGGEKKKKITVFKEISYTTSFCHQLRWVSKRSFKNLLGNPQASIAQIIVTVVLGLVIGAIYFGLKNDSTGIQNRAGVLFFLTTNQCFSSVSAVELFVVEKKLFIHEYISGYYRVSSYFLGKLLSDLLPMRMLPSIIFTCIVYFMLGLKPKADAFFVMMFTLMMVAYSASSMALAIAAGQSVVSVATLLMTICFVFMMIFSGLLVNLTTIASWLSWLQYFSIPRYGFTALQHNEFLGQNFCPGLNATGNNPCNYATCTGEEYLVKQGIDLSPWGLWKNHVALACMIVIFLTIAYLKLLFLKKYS
The experiment in a line: flow cytometry (FACS) on 293T_ABCG2_OX cells. (A flow cytometer gives signals particle by particle.)

The target of experiment [2] is T2, cynomolgus ABCG2 (Macaca fascicularis) (Macaca fascicularis (cynomolgus), UniProt Q5MB13 1-654 (rhesus entry)).
T2 construct: also called cABCG2
T2 sequence: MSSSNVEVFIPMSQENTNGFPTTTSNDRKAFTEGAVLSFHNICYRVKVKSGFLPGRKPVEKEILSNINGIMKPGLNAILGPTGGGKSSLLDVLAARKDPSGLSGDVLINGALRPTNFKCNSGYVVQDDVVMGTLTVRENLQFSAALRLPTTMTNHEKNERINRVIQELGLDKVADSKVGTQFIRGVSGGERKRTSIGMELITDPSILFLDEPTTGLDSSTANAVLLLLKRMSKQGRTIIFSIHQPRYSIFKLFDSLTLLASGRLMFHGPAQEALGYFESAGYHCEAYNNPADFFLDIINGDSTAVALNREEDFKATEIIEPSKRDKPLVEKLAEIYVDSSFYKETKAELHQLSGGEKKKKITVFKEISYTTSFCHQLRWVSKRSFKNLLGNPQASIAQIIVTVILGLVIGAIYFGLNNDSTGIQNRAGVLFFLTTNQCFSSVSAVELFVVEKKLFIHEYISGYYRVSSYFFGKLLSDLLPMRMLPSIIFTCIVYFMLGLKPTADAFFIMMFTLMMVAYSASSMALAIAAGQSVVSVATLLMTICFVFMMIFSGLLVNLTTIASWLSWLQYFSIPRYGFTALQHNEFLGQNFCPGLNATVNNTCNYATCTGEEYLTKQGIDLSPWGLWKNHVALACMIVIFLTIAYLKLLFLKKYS
As to the kind of experiment: flow cytometry on cells expressing cynomolgus ABCG2; paragraph 395: non-significant binding = -.
Description: (§1) Cell Binding Assays. Antibody binding to cells was evaluated by flow cytometry. […] After incubating cells on ice for 30 min, cells were washed twice with flow cytometry buffer. Bound antibody was detected with PE-labeled F(ab′)₂ fragment goat anti-human IgG (Jackson ImmunoResearch) and evaluated on an Attune NxT flow cytometer.

Experiment [3] concerns the target T2, cynomolgus ABCG2 (Macaca fascicularis). As to the kind of experiment: flow cytometry, 293T cells overexpressing cynomolgus ABCG2.
Description: as §1
In experiment [4] the target is T1, human ABCG2. The experiment in a line: flow cytometry, 293T cells overexpressing human ABCG2.
Description: as §1
Experiment [5] has as its target T1, human ABCG2. As to the kind of experiment: cell-based or functional assay.

B1: G2.256 mouse (antibody, human IgG1, V domains shown)
VH: EVQLQQSGPELVKPGASLKISCKTFGYSFTGYYMHWVKQSPEKSLEWIGKIVPSTGGTTYNQKFKAKATLTVDKSSFTAYMQLKSLTSEDSAVYYCAREKVYGYDVYYFDYWGQGTTLTVSS
VL: DIVMSQSPATLSVTPGDRVSLSCRASQSISDYLHWYQQKSHESPRLLIKYASQSISGIPSRFSGSGSGSDFTLSINSVEPEDVGVYYCQNGHSFPWTFGGGTKLEIK
notes: Variable regions cloned onto human IgG1 constant heavy chain and human kappa constant light chain
As to B1, the figures for the binding result in experiment [1] and in experiment [2] were “binds” and “no binding”, respectively.

B2: G2.640 (antibody, human IgG1, V domains shown)
VH: EVKLEESGPGLVQPSQTLSLTCTVSGFSLTSDGVSWVRQPPGKGLEWIAAISSGGSTYYNSALKSRLSISRDTSKSQVFLKMNSLQTEDTAIYFCTRDTYYGYNQIPFVYWGQGTLVTVSS
VL: DIVIIQSPPSLSASLGDKVTISCQASQNIHRYIAWYQQKPGKAPRLLIRYTSTLESGTPSRFSGSGSGRDYSFSISNVESEDIASYYCLQYVNLWTFGGGTKLELK
notes: Raised in rats
On to B2, for which the binding result in experiment [3] and in experiment [4] was “no binding” in each case. Moreover, in experiment [5], the “IC50 of topotecan cytotoxicity in the presence of the antibody” value was determined as 6.9 nM.

(Values after patent US20230212305A1 (published 2023).)
